Earlier results on three substances are cited in paper PMC10380471.

Data set [1] addresses consensus peptide.
Data set [2] concerns the target consensus peptide. This is another data set of the same source.
Data set [3] addresses consensus peptide. The source holds these as a separate data set.

Where two headings read alike, the source gives them in different places.

Pim-1, sequence (P11309 whole entry): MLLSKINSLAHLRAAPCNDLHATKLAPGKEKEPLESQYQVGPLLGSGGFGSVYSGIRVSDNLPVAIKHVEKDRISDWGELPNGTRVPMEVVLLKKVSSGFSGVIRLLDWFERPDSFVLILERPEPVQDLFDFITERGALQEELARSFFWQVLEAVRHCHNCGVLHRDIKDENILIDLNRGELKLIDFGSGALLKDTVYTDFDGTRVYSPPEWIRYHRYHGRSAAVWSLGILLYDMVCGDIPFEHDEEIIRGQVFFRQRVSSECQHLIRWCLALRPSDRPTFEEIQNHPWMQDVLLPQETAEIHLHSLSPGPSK
Pim-2, sequence (Q9P1W9 whole entry): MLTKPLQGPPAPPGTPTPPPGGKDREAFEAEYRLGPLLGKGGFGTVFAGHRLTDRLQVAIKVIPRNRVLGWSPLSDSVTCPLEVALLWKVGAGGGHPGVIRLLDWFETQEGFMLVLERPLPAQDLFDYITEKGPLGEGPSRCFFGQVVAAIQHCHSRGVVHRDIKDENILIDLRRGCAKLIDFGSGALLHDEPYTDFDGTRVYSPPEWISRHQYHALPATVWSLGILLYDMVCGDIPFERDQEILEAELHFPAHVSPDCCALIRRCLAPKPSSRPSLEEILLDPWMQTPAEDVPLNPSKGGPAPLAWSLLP

The Kd is the constant that tells how readily two partners part at equilibrium. Take Pim-1 (from UniProt P11309): in the data set with consensus peptide [1], the Kd was 58 nM.
As for Pim-2 (from UniProt Q9P1W9), the equilibrium dissociation constant (Kd) with consensus peptide [2] was 640 nM.
Regarding Pim-3 (from UniProt Q86V86), in the data set with consensus peptide [3], the Kd was 39 nM.
